Measured values reported in patent US20130252884A1 (Novo Nordisk, published 2013).

B1: Met-FGF21 (mature human FGF21 with an added N-terminal methionine) (ligand)
chain: MHPIPDSSPLLQFGGQVRQRYLYTDDAQQTEAHLEIREDGTVGGAADQSPESLLQLKALKPGVIQILGVKTSRFLCQRPDGALYGSLHFDPEACSFRELLLEDGYNVYQSEAHGLPLHLPGNKSPHRDPAPRGPARFLPLPGLPPALPEPPGILAPQPPDVGSSDPLSMVGPSQGRSPSYAS
B2: [-1A, S71C, N121Q, L166F, S167G, M168L, G174V, Y179F, A180E] FGF-21 (ligand)
chain: AHPIPDSSPLLQFGGQVRQRYLYTDDAQQTEAHLEIREDGTVGGAADQSPESLLQLKALKPGVIQILGVKTCRFLCQRPDGALYGSLHFDPEACSFRELLLEDGYNVYQSEAHGLPLHLPGQKSPHRDPAPRGPARFLPLPGLPPALPEPPGILAPQPPDVGSSDPFGLVGPSQVRSPSFES
B3: [-1A, S71C, N121Q, L166F, S167G, M168L, G174V, Y179F, A180E, des181] FGF-21 (ligand)
chain: AHPIPDSSPLLQFGGQVRQRYLYTDDAQQTEAHLEIREDGTVGGAADQSPESLLQLKALKPGVIQILGVKTCRFLCQRPDGALYGSLHFDPEACSFRELLLEDGYNVYQSEAHGLPLHLPGQKSPHRDPAPRGPARFLPLPGLPPALPEPPGILAPQPPDVGSSDPFGLVGPSQVRSPSFE
B4: Derivative 21: Analog 5 with modifying moiety III on the sulphur of Cys 71 (ligand)
chain: AHPIPDSSPLLQFGGQVRQRYLYTDDAQQTEAHLEIREDGTVGGAADQSPESLLQLKALKPGVIQILGVKTCRFLCQRPDGALYGSLHFDPEACSFRELLLEDGYNVYQSEAHGLPLHLPGQKSPHRDPAPRGPARFLPLPGLPPALPEPPGILAPQPPDVGSSDPFGLVGPSQVRSPSFE
modifications: Cys 71: {2-[2-(2-{2-[2-(2-{2-[(S)-4-Carboxy-4-(17-carboxyheptadecanoylamino)butyrylamino]ethoxy}ethoxy)acetylamino]ethoxy}ethoxy)acetylamino]ethylcarbamoyl}methyl (modifying moiety III) on the sulphur atom
B5: [-1A, S71C, N121Q, L166F, M168L, Q173A, G174V, Y179F] FGF21 (ligand)
chain: AHPIPDSSPLLQFGGQVRQRYLYTDDAQQTEAHLEIREDGTVGGAADQSPESLLQLKALKPGVIQILGVKTCRFLCQRPDGALYGSLHFDPEACSFRELLLEDGYNVYQSEAHGLPLHLPGQKSPHRDPAPRGPARFLPLPGLPPALPEPPGILAPQPPDVGSSDPFSLVGPSAVRSPSFAS
B6: Derivative 102: Analog 11 with modifying moiety III on the sulphur of Cys 71 (ligand)
chain: AHPIPDSSPLLQFGGQVRQRYLYTDDAQQTEAHLEIREDGTVGGAADQSPESLLQLKALKPGVIQILGVKTCRFLCQRPDGALYGSLHFDPEACSFRELLLEDGYNVYQSEAHGLPLHLPGQKSPHRDPAPRGPARFLPLPGLPPALPEPPGILAPQPPDVGSSDPFSLVGPSAVRSPSFAS
modifications: Cys 71: {2-[2-(2-{2-[2-(2-{2-[(S)-4-Carboxy-4-(17-carboxyheptadecanoylamino)butyrylamino]ethoxy}ethoxy)acetylamino]ethoxy}ethoxy)acetylamino]ethylcarbamoyl}methyl (modifying moiety III) on the sulphur atom
B7: [-1A, S71C, L166F, S167G, M168L, P171L, S172E, Q173A, G174V, Y179F, A180E] FGF-21 (ligand)
chain: AHPIPDSSPLLQFGGQVRQRYLYTDDAQQTEAHLEIREDGTVGGAADQSPESLLQLKALKPGVIQILGVKTCRFLCQRPDGALYGSLHFDPEACSFRELLLEDGYNVYQSEAHGLPLHLPGNKSPHRDPAPRGPARFLPLPGLPPALPEPPGILAPQPPDVGSSDPFGLVGLEAVRSPSFES
B8: [-1A, S71C, L166F, S167G, M168L, P171L, S172E, Q173A, G174V, Y179F, A180E, des181] FGF-21 (ligand)
chain: AHPIPDSSPLLQFGGQVRQRYLYTDDAQQTEAHLEIREDGTVGGAADQSPESLLQLKALKPGVIQILGVKTCRFLCQRPDGALYGSLHFDPEACSFRELLLEDGYNVYQSEAHGLPLHLPGNKSPHRDPAPRGPARFLPLPGLPPALPEPPGILAPQPPDVGSSDPFGLVGLEAVRSPSFE
B9: Derivative 19: Analog 3 with modifying moiety III on the sulphur of Cys 71 (ligand)
chain: AHPIPDSSPLLQFGGQVRQRYLYTDDAQQTEAHLEIREDGTVGGAADQSPESLLQLKALKPGVIQILGVKTCRFLCQRPDGALYGSLHFDPEACSFRELLLEDGYNVYQSEAHGLPLHLPGNKSPHRDPAPRGPARFLPLPGLPPALPEPPGILAPQPPDVGSSDPFGLVGLEAVRSPSFE
modifications: Cys 71: {2-[2-(2-{2-[2-(2-{2-[(S)-4-Carboxy-4-(17-carboxyheptadecanoylamino)butyrylamino]ethoxy}ethoxy)acetylamino]ethoxy}ethoxy)acetylamino]ethylcarbamoyl}methyl (modifying moiety III) on the sulphur atom
B10: [-1A, S71C, L166F, S167G, M168L, G174V, Y179F, A180E] FGF-21 (ligand)
chain: AHPIPDSSPLLQFGGQVRQRYLYTDDAQQTEAHLEIREDGTVGGAADQSPESLLQLKALKPGVIQILGVKTCRFLCQRPDGALYGSLHFDPEACSFRELLLEDGYNVYQSEAHGLPLHLPGNKSPHRDPAPRGPARFLPLPGLPPALPEPPGILAPQPPDVGSSDPFGLVGPSQVRSPSFES
B11: Derivative 18: Analog 2 with modifying moiety III on the sulphur of Cys 71 (ligand)
chain: AHPIPDSSPLLQFGGQVRQRYLYTDDAQQTEAHLEIREDGTVGGAADQSPESLLQLKALKPGVIQILGVKTCRFLCQRPDGALYGSLHFDPEACSFRELLLEDGYNVYQSEAHGLPLHLPGNKSPHRDPAPRGPARFLPLPGLPPALPEPPGILAPQPPDVGSSDPFGLVGPSQVRSPSFES
modifications: Cys 71: {2-[2-(2-{2-[2-(2-{2-[(S)-4-Carboxy-4-(17-carboxyheptadecanoylamino)butyrylamino]ethoxy}ethoxy)acetylamino]ethoxy}ethoxy)acetylamino]ethylcarbamoyl}methyl (modifying moiety III) on the sulphur atom
B12: [-1A, 121Q, 166F, 167G, 168L, 171L, 172E, 173A, 174V, 179F, 180E, des181] FGF-21 (ligand)
chain: AHPIPDSSPLLQFGGQVRQRYLYTDDAQQTEAHLEIREDGTVGGAADQSPESLLQLKALKPGVIQILGVKTSRFLCQRPDGALYGSLHFDPEACSFRELLLEDGYNVYQSEAHGLPLHLPGQKSPHRDPAPRGPARFLPLPGLPPALPEPPGILAPQPPDVGSSDPFGLVGLEAVRSPSFE
B13: [-1A, S71C, L166F, S167G, M168L, G174V, Y179F, A180E, des181] FGF-21 (ligand)
chain: AHPIPDSSPLLQFGGQVRQRYLYTDDAQQTEAHLEIREDGTVGGAADQSPESLLQLKALKPGVIQILGVKTCRFLCQRPDGALYGSLHFDPEACSFRELLLEDGYNVYQSEAHGLPLHLPGNKSPHRDPAPRGPARFLPLPGLPPALPEPPGILAPQPPDVGSSDPFGLVGPSQVRSPSFE
B14: Derivative 17: Analog 1 with modifying moiety III on the sulphur of Cys 71 (ligand)
chain: AHPIPDSSPLLQFGGQVRQRYLYTDDAQQTEAHLEIREDGTVGGAADQSPESLLQLKALKPGVIQILGVKTCRFLCQRPDGALYGSLHFDPEACSFRELLLEDGYNVYQSEAHGLPLHLPGNKSPHRDPAPRGPARFLPLPGLPPALPEPPGILAPQPPDVGSSDPFGLVGPSQVRSPSFE
modifications: Cys 71: {2-[2-(2-{2-[2-(2-{2-[(S)-4-Carboxy-4-(17-carboxyheptadecanoylamino)butyrylamino]ethoxy}ethoxy)acetylamino]ethoxy}ethoxy)acetylamino]ethylcarbamoyl}methyl (modifying moiety III) on the sulphur atom
B15: [-1A, S71C, N121Q, L166F, S167G, M168L, P171L, S172E, Q173A, G174V, Y179F, A180E] FGF-21 (ligand)
chain: AHPIPDSSPLLQFGGQVRQRYLYTDDAQQTEAHLEIREDGTVGGAADQSPESLLQLKALKPGVIQILGVKTCRFLCQRPDGALYGSLHFDPEACSFRELLLEDGYNVYQSEAHGLPLHLPGQKSPHRDPAPRGPARFLPLPGLPPALPEPPGILAPQPPDVGSSDPFGLVGLEAVRSPSFES
B16: Derivative 24: Analog 8 with modifying moiety III on the sulphur of Cys 71 (ligand)
chain: AHPIPDSSPLLQFGGQVRQRYLYTDDAQQTEAHLEIREDGTVGGAADQSPESLLQLKALKPGVIQILGVKTCRFLCQRPDGALYGSLHFDPEACSFRELLLEDGYNVYQSEAHGLPLHLPGQKSPHRDPAPRGPARFLPLPGLPPALPEPPGILAPQPPDVGSSDPFGLVGLEAVRSPSFES
modifications: Cys 71: {2-[2-(2-{2-[2-(2-{2-[(S)-4-Carboxy-4-(17-carboxyheptadecanoylamino)butyrylamino]ethoxy}ethoxy)acetylamino]ethoxy}ethoxy)acetylamino]ethylcarbamoyl}methyl (modifying moiety III) on the sulphur atom
B17: [-1A, S71C, N121Q, L166F, S167G, M168L, P171L, S172E, Q173A, G174V, Y179F, A180E, des181] FGF-21 (ligand)
chain: AHPIPDSSPLLQFGGQVRQRYLYTDDAQQTEAHLEIREDGTVGGAADQSPESLLQLKALKPGVIQILGVKTCRFLCQRPDGALYGSLHFDPEACSFRELLLEDGYNVYQSEAHGLPLHLPGQKSPHRDPAPRGPARFLPLPGLPPALPEPPGILAPQPPDVGSSDPFGLVGLEAVRSPSFE
B18: Derivative 23: Analog 7 with modifying moiety III on the sulphur of Cys 71 (ligand)
chain: AHPIPDSSPLLQFGGQVRQRYLYTDDAQQTEAHLEIREDGTVGGAADQSPESLLQLKALKPGVIQILGVKTCRFLCQRPDGALYGSLHFDPEACSFRELLLEDGYNVYQSEAHGLPLHLPGQKSPHRDPAPRGPARFLPLPGLPPALPEPPGILAPQPPDVGSSDPFGLVGLEAVRSPSFE
modifications: Cys 71: {2-[2-(2-{2-[2-(2-{2-[(S)-4-Carboxy-4-(17-carboxyheptadecanoylamino)butyrylamino]ethoxy}ethoxy)acetylamino]ethoxy}ethoxy)acetylamino]ethylcarbamoyl}methyl (modifying moiety III) on the sulphur atom
B19: Derivative 31: Analog 7 with modifying moiety IV on the sulphur of Cys 71 (ligand)
chain: AHPIPDSSPLLQFGGQVRQRYLYTDDAQQTEAHLEIREDGTVGGAADQSPESLLQLKALKPGVIQILGVKTCRFLCQRPDGALYGSLHFDPEACSFRELLLEDGYNVYQSEAHGLPLHLPGQKSPHRDPAPRGPARFLPLPGLPPALPEPPGILAPQPPDVGSSDPFGLVGLEAVRSPSFE
modifications: Cys 71: {2-[2-(2-{2-[2-(2-{2-[(S)-4-Carboxy-4-(19-carboxynonadecanoylamino)butyrylamino]ethoxy}ethoxy)acetylamino]ethoxy}ethoxy)acetylamino]ethylcarbamoyl}methyl (modifying moiety IV) on the sulphur atom
B20: [-1A, 71C, 121Q, 166F, 167G, 168L, 171L, 172E, 173A, 174V, des179-181] FGF-21 (ligand)
chain: AHPIPDSSPLLQFGGQVRQRYLYTDDAQQTEAHLEIREDGTVGGAADQSPESLLQLKALKPGVIQILGVKTCRFLCQRPDGALYGSLHFDPEACSFRELLLEDGYNVYQSEAHGLPLHLPGQKSPHRDPAPRGPARFLPLPGLPPALPEPPGILAPQPPDVGSSDPFGLVGLEAVRSPS
B21: Derivative 101: Analog 10 with modifying moiety III on the sulphur of Cys 71 (ligand)
chain: AHPIPDSSPLLQFGGQVRQRYLYTDDAQQTEAHLEIREDGTVGGAADQSPESLLQLKALKPGVIQILGVKTCRFLCQRPDGALYGSLHFDPEACSFRELLLEDGYNVYQSEAHGLPLHLPGQKSPHRDPAPRGPARFLPLPGLPPALPEPPGILAPQPPDVGSSDPFGLVGLEAVRSPS
modifications: Cys 71: {2-[2-(2-{2-[2-(2-{2-[(S)-4-Carboxy-4-(17-carboxyheptadecanoylamino)butyrylamino]ethoxy}ethoxy)acetylamino]ethoxy}ethoxy)acetylamino]ethylcarbamoyl}methyl (modifying moiety III) on the sulphur atom

Biological target: human beta-Klotho (human, UniProt Q86Z14 1-1044)
Assay: cell-based or functional assay

Row | Binder | pERK-HEK293-Beta-klotho without HSA [EC50 (nM)] Median Value
1 | B1 | 1.6 nM
2 | B2 | 0.71 nM
3 | B3 | 0.78 nM
4 | B4 | 1.07 nM
5 | B5 | 0.98 nM
6 | B6 | 1.4 nM
7 | B7 | 0.47 nM
8 | B8 | 0.77 nM
9 | B9 | 0.48 nM
10 | B10 | 0.64 nM
11 | B11 | 0.47 nM
12 | B12 | 0.7 nM
13 | B13 | 0.71 nM
14 | B14 | 0.98 nM
15 | B15 | 0.76 nM
16 | B16 | 1.01 nM
17 | B17 | 0.63 nM
18 | B18 | 0.64 nM
19 | B19 | 1.46 nM
20 | B20 | 12.5 nM
21 | B21 | 23.8 nM
